Assay results as given in US20240366761A1 (LEGEND BIOTECH IRELAND, published 2024).

B1: TGB23-4 fusion protein (TGFβ receptor and IL-23 receptor fusion protein) (receptor)
chain 1: LQCFCHLCTKDNFTCVTDGLCFVSVTETTDKVIHNSMCIAEIDLIPRDRPFVCAPSSKTGSVTTTYCCNQDHCNKIELPTTVKSSPGLGPVELVPQVTSKAFQHDTWNSGLTVASISTGHLTSDNRGDIGLLLGMIVFAVMLSILSLIGIFNRSFRTGIKRRILLLIPKWLYEDIPNMKNSNVVKMLQENSELMNNNSSEQVLYVDPMITEIKEIFIPEHKPTDYKKENTGPLETRDYPQNSLFDNTTVVYIPDLNTGYKPQISNFLPEGSHLSNNNEITSLTLKPPVDSLDSGNNPRLQKHPNFAFSVSSVNSLSNTIFLGELSLILNQGECSSPDIQNSVEEETTMLLENDSPSETIPEQTLLPDEFVSCLGIVNEELPSINTYFPQNILESHFNRISLLEK
chain 2: TIPPHVQKSVNNDMIVTDNNGAVKFPQLCKFCDVRFSTCDNQKSCMSNCSITSICEKPQEVCVAVWRKNDENITLETVCHDPKLPYHDFILEDAASPKCIMKEKKKPGETFFMCSCSSDECNDNIIFSEEYNTSNPDLLLVIFQVSDWLIFFASLGSFLSILLVGVLGYLGLNRAARHLCPPLPTPCASSAIEFPGGKETWQWINPVDFQEEASLQEALVVEMSWDKGERTEPLEKTELPEGAPELALDTELSLEDGDRCKAKM
B2: TGB23-5 fusion protein (TGFβ receptor and IL-23 receptor fusion protein) (receptor)
chain 1: TIPPHVQKSVNNDMIVTDNNGAVKFPQLCKFCDVRFSTCDNQKSCMSNCSITSICEKPQEVCVAVWRKNDENITLETVCHDPKLPYHDFILEDAASPKCIMKEKKKPGETFFMCSCSSDECNDNIIFSEEYNTSNPDLLLVIFQVPQVTSKAFQHDTWNSGLTVASISTGHLTSDNRGDIGLLLGMIVFAVMLSILSLIGIFNRSFRTGIKRRILLLIPKWLYEDIPNMKNSNVVKMLQENSELMNNNSSEQVLYVDPMITEIKEIFIPEHKPTDYKKENTGPLETRDYPQNSLFDNTTVVYIPDLNTGYKPQISNFLPEGSHLSNNNEITSLTLKPPVDSLDSGNNPRLQKHPNFAFSVSSVNSLSNTIFLGELSLILNQGECSSPDIQNSVEEETTMLLENDSPSETIPEQTLLPDEFVSCLGIVNEELPSINTYFPQNILESHFNRISLLEK
chain 2: LQCFCHLCTKDNFTCVTDGLCFVSVTETTDKVIHNSMCIAEIDLIPRDRPFVCAPSSKTGSVTTTYCCNQDHCNKIELPTTVKSSPGLGPVELVSDWLIFFASLGSFLSILLVGVLGYLGLNRAARHLCPPLPTPCASSAIEFPGGKETWQWINPVDFQEEASLQEALVVEMSWDKGERTEPLEKTELPEGAPELALDTELSLEDGDRCKAKM
B3: TGB23-6 fusion protein (TGFβ receptor and IL-23 receptor fusion protein) (receptor)
chain 1: B2 chain 2
chain 2: B2 chain 1
B4: TGB23-2 fusion protein (TGFβ receptor and IL-23 receptor fusion protein) (receptor)
chain 1: TIPPHVQKSVNNDMIVTDNNGAVKFPQLCKFCDVRFSTCDNQKSCMSNCSITSICEKPQEVCVAVWRKNDENITLETVCHDPKLPYHDFILEDAASPKCIMKEKKKPGETFFMCSCSSDECNDNIIFSEEYNTSNPDLLLVIFQVTGISLLPPLGVAISVIIIFYCYRVNRQNRSFRTGIKRRILLLIPKWLYEDIPNMKNSNVVKMLQENSELMNNNSSEQVLYVDPMITEIKEIFIPEHKPTDYKKENTGPLETRDYPQNSLFDNTTVVYIPDLNTGYKPQISNFLPEGSHLSNNNEITSLTLKPPVDSLDSGNNPRLQKHPNFAFSVSSVNSLSNTIFLGELSLILNQGECSSPDIQNSVEEETTMLLENDSPSETIPEQTLLPDEFVSCLGIVNEELPSINTYFPQNILESHFNRISLLEK
chain 2: LQCFCHLCTKDNFTCVTDGLCFVSVTETTDKVIHNSMCIAEIDLIPRDRPFVCAPSSKTGSVTTTYCCNQDHCNKIELPTTVKSSPGLGPVELAAVIAGPVCFVCISLMLMVYICHNRTVNRAARHLCPPLPTPCASSAIEFPGGKETWQWINPVDFQEEASLQEALVVEMSWDKGERTEPLEKTELPEGAPELALDTELSLEDGDRCKAKM
B5: TGB23-3 fusion protein (TGFβ receptor and IL-23 receptor fusion protein) (receptor)
chain 1: B4 chain 2
chain 2: B4 chain 1

molecular target: recombinant human TGFβ1 (human, UniProt P01137 279-390); assay: cell-based or functional assay
Sequence (P01137 279-390 limits assumed): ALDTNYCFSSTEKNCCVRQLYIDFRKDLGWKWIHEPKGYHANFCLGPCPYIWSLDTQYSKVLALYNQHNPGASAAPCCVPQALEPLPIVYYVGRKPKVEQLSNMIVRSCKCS

**Q.** How did the “T cell number from day 0 to day 5 after transduction, culture with 20 ng/mL TGFβ1” value (shortened to “T cell number”) turn out when B1 was run?
**A.** > 4 fold

**Q.** B2 was tested. Which “T cell number” value did it give?
**A.** > 4 fold

**Q.** B3 was tested. Which “T cell number” value did it give?
**A.** > 4 fold

**Q.** Which “T cell number” value does the source give for B4 here?
**A.** > 4 fold

**Q.** Which “T cell number” value does the source give for B5 here?
**A.** > 4 fold
